Measurements: patent US20220119534A1 (DRAGONFLY THERAPEUTICS, published 2022)
Changes are numbered by the printed parent chain. Numbers in names are those of the source. Where “and” joins values, the source holds several entries; their conditions need not be identical. Equal entries are not always repeated.

Columns and labels:
mFc-cNKG2D = molecular target: T1, mFc-cNKG2D (cynomolgus monkey, UniProt P61252 73-216); assay: SPR Biacore 37 C; mFc-tagged cyno NKG2D dimer, TriNKET as analyte; 1:1 kinetic fit; average of 4
T1 construct: extracellular domain; Made in house (Dragonfly Tx); also called recombinant cyno NKG2D extracellular domain (ECD); mFc-tagged cyno NKG2D dimer; not shown: mouse Fc tag
T1 sequence (looked up): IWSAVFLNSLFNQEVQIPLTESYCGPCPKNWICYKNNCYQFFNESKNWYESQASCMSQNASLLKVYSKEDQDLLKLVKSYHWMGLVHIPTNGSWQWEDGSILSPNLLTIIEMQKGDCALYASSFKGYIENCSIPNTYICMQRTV

mFc-hNKG2D = molecular target: T2, mFc-hNKG2D (human, UniProt P26718 73-216); assay: SPR Biacore 8K 37 C; mFc-hNKG2D captured on anti-mFc chip, TriNKET as analyte; steady state affinity fit
T2 construct: extracellular domain; Made in house (Dragonfly Tx); the order of tag and ECD follows the name mFc-hNKG2D; also called mFc-tagged human NKG2D; not shown: mouse Fc tag
T2 sequence (looked up): T1 sequence (looked up) with N43D, I133T

[1] = molecular target: T3, Human CD16a V158 (FcγRIIIa V158) (human, UniProt P08637 17-208, biotinylated); assay: SPR; after 4 wks 40C in CST pH 7.0
T3 construct: Bought recombinant receptor; also called hCD16aV; hFcγRIIIa V158
T3 sequence (P08637 17-208 F176V limits assumed): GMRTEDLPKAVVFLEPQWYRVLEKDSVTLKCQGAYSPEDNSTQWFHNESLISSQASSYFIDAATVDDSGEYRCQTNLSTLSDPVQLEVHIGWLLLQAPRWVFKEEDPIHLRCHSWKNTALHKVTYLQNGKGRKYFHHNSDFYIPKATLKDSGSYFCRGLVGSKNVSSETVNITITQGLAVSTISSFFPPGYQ

Human CD32b (FcγRIIb) = molecular target: T4, Human CD32b (FcγRIIb) (human, UniProt P31994 46-217, limits assumed, biotinylated); assay: SPR, summary of FcγR affinities
T4 construct: Bought recombinant receptor; also called hFcγRIIb; CD32b (FcγR2b)
T4 sequence (looked up): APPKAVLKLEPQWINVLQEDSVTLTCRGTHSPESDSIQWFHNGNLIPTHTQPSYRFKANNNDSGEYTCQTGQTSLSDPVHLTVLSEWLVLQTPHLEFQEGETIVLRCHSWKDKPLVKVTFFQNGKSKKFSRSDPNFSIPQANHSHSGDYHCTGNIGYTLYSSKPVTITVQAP
Experimental: (§1) Human and cynomolgus CD64, high and low affinity alleles of CD16a (V158 and F158, respectively), two alleles of CD32a (H131 and R131), CD16b, CD32b and cynomolgus CD16 were captured via biotin on a primed (according to the manufacturers instruction) Biacore chip. […] Due to irreversibility of streptavidin-biotin interaction, the capture step for all receptors except FcγRI (CD64) was performed just once prior to the start of the binding experiment. hCD64 and cyno CD64 capture on the CAP chip surface was performed during each cycle in accordance with the manufacturer's instructions for the Biotin CAPture kit.
(§2) Detailed description of each individual receptor binding is presented below.

[2] = molecular target: T5, Human CD16a F158 (FcγRIIIa F158) (human, UniProt P08637 17-208, biotinylated); assay: SPR, summary of FcγR affinities
T5 construct: Bought recombinant receptor; also called hFcγRIIIa F158
T5 sequence (P08637 17-208 limits assumed): as the sequence (P08637 17-208 F176V limits assumed) above, with V160F counted along it
Experimental: as §1, §2

[3] = molecular target: T3, Human CD16a V158 (FcγRIIIa V158); assay: SPR, summary of FcγR affinities
Experimental: as §1, §2

Human CD64 (FcγRI) = molecular target: T6, Human CD64 (FcγRI) (human, UniProt P12314 16-288, biotinylated); assay: SPR, summary of FcγR affinities
T6 construct: Bought recombinant receptor; also called hFcγRI; Human FcγRI
T6 sequence (P12314 16-288 limits assumed): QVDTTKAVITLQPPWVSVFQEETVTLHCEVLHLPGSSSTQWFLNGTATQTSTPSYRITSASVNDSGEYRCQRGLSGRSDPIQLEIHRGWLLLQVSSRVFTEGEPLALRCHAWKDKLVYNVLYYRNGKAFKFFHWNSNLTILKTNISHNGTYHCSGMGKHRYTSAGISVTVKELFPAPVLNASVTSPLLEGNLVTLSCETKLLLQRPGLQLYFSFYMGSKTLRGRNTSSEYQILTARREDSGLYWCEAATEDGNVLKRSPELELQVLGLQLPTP
Experimental: as §1, §2

[4] = molecular target: T7, Human CD32a H131 (FcγRIIa H131) (human, UniProt P12318 36-218, limits assumed, biotinylated); assay: SPR, summary of FcγR affinities
T7 construct: Bought recombinant receptor; also called hFcγRIIa H131; FcgRIIa H131
T7 sequence (looked up): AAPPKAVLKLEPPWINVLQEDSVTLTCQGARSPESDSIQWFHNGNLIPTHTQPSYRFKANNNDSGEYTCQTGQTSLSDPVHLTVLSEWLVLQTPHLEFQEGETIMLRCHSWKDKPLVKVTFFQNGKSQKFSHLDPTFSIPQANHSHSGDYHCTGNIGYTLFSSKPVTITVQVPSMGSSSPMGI
Experimental: as §1, §2

[5] = molecular target: T8, Human CD32a R131 (FcγRIIa R131) (human, UniProt P12318 36-218, limits assumed, biotinylated); assay: SPR, summary of FcγR affinities
T8 construct: Bought recombinant receptor; also called hFcγRIIa R131; FcgRIIa R131
T8 sequence (looked up): T7 sequence (looked up) with H132R
Experimental: as §1, §2

Cynomolgus CD64 (FcγRI) = molecular target: T9, Cynomolgus CD64 (FcγRI) (cynomolgus monkey, UniProt A0A2K5U901 33-309, Biotinylated and captured on the CAP chip (p-1094); the biotin site is not stated.); assay: SPR 25C, biotinylated cyno CD64 captured on CAP chip
T9 construct: Bought recombinant receptor; also called cFcγRI; Cynomolgus FcγRI; not shown: The vendor's biotinylation and purification tag (ACRO FCA-C82E8)
T9 sequence (A0A2K5U901 entry or part of it limits assumed): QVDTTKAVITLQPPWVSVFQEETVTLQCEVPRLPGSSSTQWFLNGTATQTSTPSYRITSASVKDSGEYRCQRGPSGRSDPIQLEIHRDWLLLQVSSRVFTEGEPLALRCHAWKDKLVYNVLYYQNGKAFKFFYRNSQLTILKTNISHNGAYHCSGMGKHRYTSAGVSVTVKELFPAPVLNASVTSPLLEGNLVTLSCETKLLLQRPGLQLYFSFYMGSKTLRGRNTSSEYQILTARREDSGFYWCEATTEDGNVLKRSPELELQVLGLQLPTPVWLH

[6] = molecular target: T10, Human CLEC12A-His (recombinant, K244 WT) (human, UniProt Q5QGZ9 65-265); assay: SPR, two-state fit (ka1); control (fully purified protein study)
T10 construct: Made in house (Dragonfly Tx); also called hCLEC12A; hCLEC12A-His; not shown: His tag
T10 sequence: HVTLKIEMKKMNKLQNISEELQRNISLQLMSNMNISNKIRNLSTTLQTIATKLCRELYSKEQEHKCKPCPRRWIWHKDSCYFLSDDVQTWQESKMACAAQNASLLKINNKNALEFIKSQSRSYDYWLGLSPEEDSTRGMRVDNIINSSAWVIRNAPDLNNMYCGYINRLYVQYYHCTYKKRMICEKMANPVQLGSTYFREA

[7] = molecular target: T11, human CLEC12A expressed on cells (human, UniProt Q5QGZ9 1-265); assay: flow cytometry, hCLEC12A+ Ba/F3
T11 construct: Transduced isogenic cells or endogenous expression on AML cells; also called RMA-hCLEC12A; Ba/F3-hCLEC12A
T11 sequence: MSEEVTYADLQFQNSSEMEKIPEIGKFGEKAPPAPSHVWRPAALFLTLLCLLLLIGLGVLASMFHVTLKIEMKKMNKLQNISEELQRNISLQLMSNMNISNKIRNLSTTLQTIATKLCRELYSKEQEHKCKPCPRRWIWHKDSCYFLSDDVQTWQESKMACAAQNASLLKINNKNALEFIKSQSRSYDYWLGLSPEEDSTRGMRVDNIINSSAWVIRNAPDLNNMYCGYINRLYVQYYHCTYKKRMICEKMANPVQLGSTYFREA

B1: F3'-1602 TriNKET (bispecific antibody, human IgG1, kappa)
chain: QLQLQESGPGLVKPSETLSLTCTVSGFSLTNYGLHWIRQPPGKCLEWIGVIWSGGKTDYNPSLKSRVTISKDTSKNQFSLKLSSVQAADTAVYYCAKYDYDDSLDYWGQGTLVTVSSGGGGSGGGGSGGGGSGGGGSDIQMTQSPSSLSASVGDRVTITCHASQNINFWLSWYQQKPGKAPKLLIYEASNLHTGVPSRFSGSGSGTRFTLTISSLQPEDIATYYCQQSHSYPLTFGCGTKLEIKGSDKTHTCPPCPAPELLGGPSVFLFPPKPKDTLMISRTPEVTCVVVDVSHEDPEVKFNWYVDGVEVHNAKTKPREEQYNSTYRVVSVLTVLHQDWLNGKEYKCKVSNKALPAPIEKTISKAKGQPREPRVYTLPPCRDELTKNQVSLTCLVKGFYPSDIAVEWESNGQPENNYKTTPPVLVSDGSFTLYSKLTVDKSRWQQGNVFSCSVMHEALHNHYTQKSLSLSPG
heavy: EVQLVESGGGLVKPGGSLRLSCAASGFTFSSYSMNWVRQAPGKGLEWVSSISSSSSYIYYADSVKGRFTISRDNAKNSLYLQMNSLRAEDTAVYYCARGAPIGAAAGWFDPWGQGTLVTVSSASTKGPSVFPLAPSSKSTSGGTAALGCLVKDYFPEPVTVSWNSGALTSGVHTFPAVLQSSGLYSLSSVVTVPSSSLGTQTYICNVNHKPSNTKVDKKVEPKSCDKTHTCPPCPAPELLGGPSVFLFPPKPKDTLMISRTPEVTCVVVDVSHEDPEVKFNWYVDGVEVHNAKTKPREEQYNSTYRVVSVLTVLHQDWLNGKEYKCKVSNKALPAPIEKTISKAKGQPREPQVCTLPPSRDELTENQVSLTCLVKGFYPSDIAVEWESNGQPENNYKTTPPVLDSDGSFFLYSWLTVDKSRWQQGNVFSCSVMHEALHNHYTQKSLSLSPG
light: DIQMTQSPSSVSASVGDRVTITCRASQGISSWLAWYQQKPGKAPKLLIYAASSLQSGVPSRFSGSGSGTDFTLTISSLQPEDFATYYCQQGVSFPRTFGGGTKVEIKRTVAAPSVFIFPPSDEQLKSGTASVVCLLNNFYPREAKVQWKVDNALQSGNSQESVTEQDSKDSTYSLSSTLTLSKADYEKHKVYACEVTHQGLSSPVTKSFNRGEC
notes: Trispecific F3' format: CLEC12A scFv-Fc paired with NKG2D Fab-Fc; Stressed and control samples of the stability studies are the same molecule; also called AB0237
koff (mFc-cNKG2D): 0.141 s⁻¹ | kon (mFc-cNKG2D): 168000 M⁻¹ s⁻¹ | Kd (mFc-hNKG2D): 0.709 µM and 0.751 µM and 0.74 µM

B2: AB0089 TriNKET (bispecific antibody, human IgG1, kappa)
chain: B1 chain with S53V, K56A, K71V, Y98G, D101G, S103T, R207D, I220F
heavy: B1 heavy
light: B1 light
notes: F3' format heterodimer of three chains; human IgG1 Fc with EW-RVT and Y349C/S354C mutations; also called AB0089 Lot AB0089-002; CLEC12A TriNKET AB0089
Kd [1]: 0.342 µM | koff [1]: 0.0284 s⁻¹ | kon [1]: 83100 M⁻¹ s⁻¹ | Kd (Human CD32b (FcγRIIb)): 6.27 µM | Kd [2]: 1.27 µM | Kd [3]: 0.333 µM | Kd (Human CD64 (FcγRI)): 0.0051 µM | Kd [4]: 0.9 µM | Kd [5]: 1.25 µM | Kd (Cynomolgus CD64 (FcγRI)): 0.0015 µM and 0.0018 µM and 0.0012 µM | koff (Cynomolgus CD64 (FcγRI)): 8.1e-05 s⁻¹ and 9.5e-05 s⁻¹ and 6.6e-05 s⁻¹ | kon (Cynomolgus CD64 (FcγRI)): 55000 M⁻¹ s⁻¹ and 54000 M⁻¹ s⁻¹ | kon [6]: 1.03e+07 M⁻¹ s⁻¹

B3: F3'-1602 TriNKET (other)
chain: B1 chain
heavy: B1 heavy
light: B1 light
notes: CLEC12A scFv-Fc, NKG2D A49MI Fab-Fc, human IgG1 Fc; also called AB0237
EC50 [7]: 0.0144 µM | Max MFI [7]: 50200 MFI
